According to patent US20210187071A1, “COMPOSITIONS COMPRISING MDA-7/IL-24 PROTEIN AND METHODS OF USE” (VIRGINIA COMMONWEALTH UNIVERSITY, priority 2017, published 2021):
“Also recorded” adds a separate entry of the source.

Columns and labels:
bone marrow cells [1] = experiment: In vitro RANKL-induced osteoclast differentiation of primary bone marrow cells; assay type: cell-based, athymic nude mice; conditions: RANKL induction 5 days, 10 μg/mL MDA-7/IL-24 protein
Method: (§1) Osteoclast Formation Assays: Bone marrow cells were induced for osteoclast differentiation using previously described protocols (28). Briefly, bone marrow cells were cultured in minimal essential medium (α-MEM) with 10% fetal bovine serum with MCSF (10 ng/ml) for 24 hrs. They were subsequently treated with RANKL (100 ng/ml) for 5 days. Cultured cells were fixed and stained for TRAP (Tartarate-resistant acid phosphatase). TRAP staining was performed following the specific protocol provided with the kit (Sigma-Aldrich, Inc. St. Louis, Mo., USA). Multinucleated cells, considered as differentiated osteoclasts, were counted manually under bright field microscope. TRACP enzymatic assays were done as per the manufacturer's instructions (R & D, Minneapolis, Minn., USA).
To investigate the effect of MDA-7/IL-24 on osteoclast differentiation, bone marrow cells from athymic nude mice were isolated and induced to differentiate with RANKL in the presence or absence of MDA-7/IL-24 protein. Five days after induction with RANKL, osteoclast differentiation was measured by counting multinucleated cells. Cells positively stained for TRAP and multinucleated cells were quantified under a light microscope (FIG. 9A). […] To provide molecular insights into this inhibitory effect, we used a mouse macrophage cell line RAW 264.7, which can be induced to differentiate into osteoclasts when incubated with RANKL (32). Using RAW 264.7 cells, different genetic markers associated with osteoclastic differentiation were monitored (33). RAW 264.7 cells were treated with RANKL or MDA-7/IL-24 alone and in combination. RNA was isolated after 5 days of treatment and real time PCR quantified expression of TRAP, Cathepsin K (CTSK), and Calcitonin Receptor (CTR) genes. RANKL induced the expression of TRAP, CTSK and CTR gene expression. […] MTT assays were performed to determine if MDA-7/IL-24 caused any growth suppression in this cell line. Proliferation of RAW 264.7 was not affected by MDA-7/IL-24, further illustrating the tumor-specificity of this cytokine (FIG. 10B). DU-145 (PC) cells were used as a positive control (FIG. 10C).

[2] = test system: TRAP, Cathepsin K (CTSK), and Calcitonin Receptor (CTR) genes; experiment: RQ-PCR of osteoclastic genes in RAW 264.7 cells; assay type: cell-based, mouse; conditions: 5 days, MDA-7/IL-24 protein 10 μg/mL, RANKL 100 ng/mL
Method: Real Time q-PCR: Total RNA was isolated from cells with the RNA isolation kit from Qiagen (Valencia, Calif., USA). RQ-PCR was performed using TaqMan probes and master mix from Applied Biosystems (Foster City, Calif., USA). Data were analyzed using the graph pad prism software.
To investigate the effect of MDA-7/IL-24 on osteoclast differentiation, bone marrow cells from athymic nude mice were isolated and induced to differentiate with RANKL in the presence or absence of MDA-7/IL-24 protein. Five days after induction with RANKL, osteoclast differentiation was measured by counting multinucleated cells. Cells positively stained for TRAP and multinucleated cells were quantified under a light microscope (FIG. 9A). […] To provide molecular insights into this inhibitory effect, we used a mouse macrophage cell line RAW 264.7, which can be induced to differentiate into osteoclasts when incubated with RANKL (32). Using RAW 264.7 cells, different genetic markers associated with osteoclastic differentiation were monitored (33). RAW 264.7 cells were treated with RANKL or MDA-7/IL-24 alone and in combination. RNA was isolated after 5 days of treatment and real time PCR quantified expression of TRAP, Cathepsin K (CTSK), and Calcitonin Receptor (CTR) genes. RANKL induced the expression of TRAP, CTSK and CTR gene expression. […]

RAW 264.7 = experiment: MTT proliferation assay in RAW 264.7 cells; assay type: cell-based, mouse; conditions: His-MDA-7 10 μg/ml, 5 days
Method: MTT Cell Proliferation and Clonal Assays: Cell proliferation assays were done as described previously (25). Briefly, 2,000 cells were seeded in each well of a 96-well plate and allowed to attach overnight. Cells were treated with complete media in the presence or absence of different concentrations of MDA-7/IL-24 protein. At appropriate time points, cells were further incubated with MTT (3-(4, 5-di methyl thiazol-2-yl)-2, 5 diphenyl tetrazolium bromide) reagents. Finally, DMSO was applied to dissolve the blue salt and the OD was measured at 560 nm (25). For determining long-term effects, colony formation (cloning) assays were performed as described earlier (26). […]
To investigate the effect of MDA-7/IL-24 on osteoclast differentiation, bone marrow cells from athymic nude mice were isolated and induced to differentiate with RANKL in the presence or absence of MDA-7/IL-24 protein. Five days after induction with RANKL, osteoclast differentiation was measured by counting multinucleated cells. Cells positively stained for TRAP and multinucleated cells were quantified under a light microscope (FIG. 9A). […] Using RAW 264.7 cells, different genetic markers associated with osteoclastic differentiation were monitored (33). […] RNA was isolated after 5 days of treatment and real time PCR quantified expression of TRAP, Cathepsin K (CTSK), and Calcitonin Receptor (CTR) genes. […]

[3] = test system: Akt signaling (p-Akt, p-GSK3β, NFATc1, Mcl-1); experiment: Western blotting of Akt signaling cascade in RAW 264.7 cells; assay type: cell-based, mouse
Excerpt: Western Blotting: Standard protocols were followed for Western blotting assays (24, 27). The primary antibodies used were pAkt, Akt, pGSK3β, GSK3β, NFATc1, cyclin D1 (Cell Signaling Technology, Danvers, Mass., USA) and EF1α (Abeam, Cambridge, United Kingdom). Appropriate secondary antibodies were purchased from Sigma-Aldrich, Inc. St. Louis, Mo., USA).
MDA-7/IL-24 Regulates AKT Signaling in Mouse Macrophage cells: To determine whether MDA-7/IL-24 protein exerts any effect on Akt activation in our model system, RAW 264.7 cells were treated with MDA-7/IL-24 protein in the presence or absence of RANKL. It was observed that RANKL induces Akt activation in RAW 264.7 cells, and this activated Akt was suppressed by MDA-7/IL-24 protein (FIGS. 3A and 11A). […] The effect of Akt inhibition by a PI3K kinase inhibitor (LY294002) was also studied in the signaling cascade involving NFAT, Mcl-1, and Akt (FIGS. 3B and 11B).
A constitutively active form of Akt (MYR-Akt) was also tested. Cells were transfected with MYR-Akt and treated with MDA-7/IL-24.

PC3-ML^Akt = experiment: Experimental bone metastasis model with PC3-ML cells over expressing constitutively active Akt; assay type: in vivo, male athymic nude mice; conditions: MDA-7/IL-24 protein 5 mg/kg tail vein, 6 doses over three weeks
Method: To evaluate the role of Akt in vivo, metastatic PC3-ML cells and PC3-ML cells over expressing constitutively active Akt (PC3-MI/**) (FIG. 5A) carrying firefly luciferase were injected into male athymic nude mice through the intracardiac route. Clone 1 was used for the in vivo studies, which was validated for expression of Akt downstream pathway gene expression by western blotting (FIG. 14). Proliferation, invasion, and migration of the tumor cells were monitored by IVIS® imaging. […] The Akt overexpressing PC3-ML cells were more metastatic than the control PC3-ML cells. […] These observations illustrate the significance of Akt in PC-mediated bone metastasis development, which can be partially abrogated by MDA-7/IL-24-treatment (FIG. 5B). […] To investigate osteoclastic differentiation in these animals, bone marrow cells were isolated after completion of the study. Osteoclast differentiation was induced as described above. […] Osteoclast differentiation assays further illustrated the importance of Akt in PC-mediated bone metastasis (FIGS. 5D and 5E). A schematic representation of the proposed role of MDA-7/IL-24 protein in PC-mediated bone metastasis through modulation of the bone microenvironment is presented in FIG. 6. […]

bone marrow cells [4] = experiment: Osteoclast differentiation of bone marrow from animals injected with elevated Akt-stable expression cells; assay type: in vivo, mice; conditions: MDA-7/IL-24 protein 5 mg/kg, 6 doses; differentiation induced ex vivo
Method: as §1
To evaluate the role of Akt in vivo, metastatic PC3-ML cells and PC3-ML cells over expressing constitutively active Akt (PC3-MI/**) (FIG. 5A) carrying firefly luciferase were injected into male athymic nude mice through the intracardiac route. Clone 1 was used for the in vivo studies, which was validated for expression of Akt downstream pathway gene expression by western blotting (FIG. 14). Proliferation, invasion, and migration of the tumor cells were monitored by IVIS® imaging. […] The Akt overexpressing PC3-ML cells were more metastatic than the control PC3-ML cells. […]

B1: MDA-7/IL-24 protein: Recombinant His-tagged MDA-7/IL-24 protein purified on Ni-NTA from supernatant of IM-PHFA cells infected with Ad.5-His-mda-7 (protein)
chain: QEFHFGPCQVKGVVPQKLWEAFWAVKDTMQAQDNITSARLLQQEVLQNVSDAESCYLVHTLLEFYLKTVFKNYHNRTVEVRTLKSFSTLANNFVLIVSQLQPSQENEMFSIRDSAHRRFLLFRRAFKQLDVEAALTKALGEVDILLTWMQKFYKL
Question: For B1, which “number of osteoclasts (osteoclast differentiation)” value (bone marrow cells [1]; listed as His-MDA-7) is on record?
Answer: Its value is “decreased significantly”.

Question: And the “osteoclast activity (TRACP enzymatic activity)” value (bone marrow cells [1]; listed as His-MDA-7)?
Answer: Its value is “significantly less”.

Question: What about the “number of osteoclasts (osteoclast differentiation)” value (bone marrow cells [1]; listed as MDA-7/IL-24) of the same molecule?
Answer: Its value is “significantly reduced; also recorded: reduced osteoclast differentiation”.

Question: And the “osteoclast activity (TRACP enzymatic activity)” value (bone marrow cells [1]; listed as MDA-7/IL-24)?
Answer: The value was “significantly reduced”.

Question: What about the “RANKL-induced TRAP, CTSK and CTR gene expression” value [2] of the same molecule?
Answer: Its value is “attenuated RANKL-induced regulation of these genes”.

Question: And the “Proliferation of RAW 264.7 (MTT)” value (RAW 264.7)?
Answer: Its value is “not affected”.

Question: And the “RANKL-induced Akt activation” value ([3]; MDA-7/IL-24 protein 10 μg/mL, RANKL 100 ng/mL)?
Answer: The value was “suppressed”.

Question: And the “Phosphor-GSK3β, NFATc1, and Mcl-1 expression increased by constitutively active Akt” value ([3]; RAW 264.7 cells transfected with MYR-Akt)?
Answer: Its value is “inhibited”.

Question: And the Mcl-1 expression ([3]; RAW 264.7 cells, MDA-7/IL-24 treatment)?
Answer: The Mcl-1 expression was “profoundly inhibited Mcl-1 expression”.

Question: And the “bone metastasis by PC3-ML^Akt cells” value (PC3-ML^Akt)?
Answer: The value was “diminished the inhibitory effects”.

Question: And the “bone metastasis by PC3-ML^Akt cells” value (PC3-ML^Akt; listed as MDA-7/IL-24)?
Answer: The value was “inhibited metastasis”.

Question: And the “osteoclastic activity of bone marrow from animals with Akt overexpressing cells” value (bone marrow cells [4])?
Answer: The value was “decreased”.
